Data on two molecules can be found in publication PMC11873960, “Coupled Heterogeneity to Dimeric Site-Specific Binding by the POU-Family Transcription Factor OCT2” (The Journal of Physical Chemistry. B, 2025).

Data set [1] concerns the molecule itself. Description: native gel or EMSA; 0.2 kbp DNA fragment with a single MORE site (10 nM) incubated overnight at 25 °C with graded OCT2 DBD (2-fold dilutions from 1 uM) in PBS; 4-20% gradient polyacrylamide gel; dimer assembled on DNA. (A gel shift assay detects complexes by their altered migration in electrophoresis.)
Data set [2] deals with T1, OCT2 DBD (POU domain) (Homo sapiens, UniProt P09086 195-357).
T1 sequence: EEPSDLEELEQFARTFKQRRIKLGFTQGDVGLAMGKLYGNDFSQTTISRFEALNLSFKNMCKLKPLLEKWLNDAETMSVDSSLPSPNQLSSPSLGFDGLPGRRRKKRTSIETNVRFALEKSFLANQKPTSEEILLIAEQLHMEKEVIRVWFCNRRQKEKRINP
Description: fluorescence anisotropy; 0.15 M Na+, no poly[d(I-C)]; text gives 3.2 +/- 1.4 nM; FP: 5 nM probe, 10 mM Bis-Tris pH 6.5, 0.01% BSA, 0.15-0.35 M NaCl, 25 C overnight, Hill fit with nH = 2 (macroscopic KD of dimer); EMSA: 10 nM DNA, PBS, 25 C o. The conditions noted are these: protein: recombinant; tags: N-terminal His6 removed by thrombin; chain copies: 2; label: 5'-HEX; blunt; self-complementary, 2 copies of the strand. Background: Fluorescence polarisation rises when a labelled molecule tumbles more slowly, as on binding a larger partner.

The target in data set [3] is T1, OCT2 DBD (POU domain). Description: fluorescence anisotropy; 0.20 M Na+, no poly[d(I-C)]; FP: 5 nM probe, 10 mM Bis-Tris pH 6.5, 0.01% BSA, 0.15-0.35 M NaCl, 25 C overnight, Hill fit with nH = 2 (macroscopic KD of dimer); EMSA: 10 nM DNA, PBS, 25 C o. The conditions noted are these: protein: recombinant; tags: N-terminal His6 removed by thrombin; chain copies: 2; label: 5'-HEX; blunt; self-complementary, 2 copies of the strand.

Data set [4] addresses T1, OCT2 DBD (POU domain). Description: fluorescence anisotropy; 0.15 M Na+, 1 U poly[d(I-C)]; FP: 5 nM probe, 10 mM Bis-Tris pH 6.5, 0.01% BSA, 0.15-0.35 M NaCl, 25 C overnight, Hill fit with nH = 2 (macroscopic KD of dimer); EMSA: 10 nM DNA, PBS, 25 C o. The conditions noted are these: protein: recombinant; tags: N-terminal His6 removed by thrombin; chain copies: 2; label: 5'-HEX; blunt; self-complementary, 2 copies of the strand.

Data set [5] deals with T1, OCT2 DBD (POU domain). As to the kind of experiment: fluorescence anisotropy; 0.25 M Na+, 1 U poly[d(I-C)]; FP: 5 nM probe, 10 mM Bis-Tris pH 6.5, 0.01% BSA, 0.15-0.35 M NaCl, 25 C overnight, Hill fit with nH = 2 (macroscopic KD of dimer); EMSA: 10 nM DNA, PBS, 25 C o. The conditions noted are these: protein: recombinant; tags: N-terminal His6 removed by thrombin; chain copies: 2; label: 5'-HEX; blunt; self-complementary, 2 copies of the strand.

Data set [6] has as its target T1, OCT2 DBD (POU domain). As to the kind of experiment: fluorescence anisotropy; 0.25 M Na+, no poly[d(I-C)]; FP: 5 nM probe, 10 mM Bis-Tris pH 6.5, 0.01% BSA, 0.15-0.35 M NaCl, 25 C overnight, Hill fit with nH = 2 (macroscopic KD of dimer); EMSA: 10 nM DNA, PBS, 25 C o. The conditions noted are these: protein: recombinant; tags: N-terminal His6 removed by thrombin; chain copies: 2; label: 5'-HEX; blunt; self-complementary, 2 copies of the strand.

Data set [7] addresses T1, OCT2 DBD (POU domain). As to the kind of experiment: fluorescence anisotropy; 0.175 M Na+, no poly[d(I-C)]; FP: 5 nM probe, 10 mM Bis-Tris pH 6.5, 0.01% BSA, 0.15-0.35 M NaCl, 25 C overnight, Hill fit with nH = 2 (macroscopic KD of dimer); EMSA: 10 nM DNA, PBS, 25 C o. The conditions noted are these: protein: recombinant; tags: N-terminal His6 removed by thrombin; chain copies: 2; label: 5'-HEX; blunt; self-complementary, 2 copies of the strand.

Data set [8] has as its target T1, OCT2 DBD (POU domain). As to the kind of experiment: fluorescence anisotropy; 0.20 M Na+, 1 U poly[d(I-C)]; FP: 5 nM probe, 10 mM Bis-Tris pH 6.5, 0.01% BSA, 0.15-0.35 M NaCl, 25 C overnight, Hill fit with nH = 2 (macroscopic KD of dimer); EMSA: 10 nM DNA, PBS, 25 C o. The conditions noted are these: protein: recombinant; tags: N-terminal His6 removed by thrombin; chain copies: 2; label: 5'-HEX; blunt; self-complementary, 2 copies of the strand.

For data set [9], the target named is T1, OCT2 DBD (POU domain). Description: fluorescence anisotropy; 0.30 M Na+, 1 U poly[d(I-C)]; FP: 5 nM probe, 10 mM Bis-Tris pH 6.5, 0.01% BSA, 0.15-0.35 M NaCl, 25 C overnight, Hill fit with nH = 2 (macroscopic KD of dimer); EMSA: 10 nM DNA, PBS, 25 C o. The conditions noted are these: protein: recombinant; tags: N-terminal His6 removed by thrombin; chain copies: 2; label: 5'-HEX; blunt; self-complementary, 2 copies of the strand.

The target in data set [10] is T1, OCT2 DBD (POU domain). Description: fluorescence anisotropy; 0.30 M Na+, no poly[d(I-C)]; FP: 5 nM probe, 10 mM Bis-Tris pH 6.5, 0.01% BSA, 0.15-0.35 M NaCl, 25 C overnight, Hill fit with nH = 2 (macroscopic KD of dimer); EMSA: 10 nM DNA, PBS, 25 C o. The conditions noted are these: protein: recombinant; tags: N-terminal His6 removed by thrombin; chain copies: 2; label: 5'-HEX; blunt; self-complementary, 2 copies of the strand.

Data set [11] deals with T1, OCT2 DBD (POU domain). Description: fluorescence anisotropy; 0.175 M Na+, 1 U poly[d(I-C)]; FP: 5 nM probe, 10 mM Bis-Tris pH 6.5, 0.01% BSA, 0.15-0.35 M NaCl, 25 C overnight, Hill fit with nH = 2 (macroscopic KD of dimer); EMSA: 10 nM DNA, PBS, 25 C o. The conditions noted are these: protein: recombinant; tags: N-terminal His6 removed by thrombin; chain copies: 2; label: 5'-HEX; blunt; self-complementary, 2 copies of the strand.

The target of data set [12] is T1, OCT2 DBD (POU domain). Description: fluorescence anisotropy; 0.35 M Na+, 1 U poly[d(I-C)]; text gives 0.18 +/- 0.06 uM; FP: 5 nM probe, 10 mM Bis-Tris pH 6.5, 0.01% BSA, 0.15-0.35 M NaCl, 25 C overnight, Hill fit with nH = 2 (macroscopic KD of dimer); EMSA: 10 nM DNA, PBS, 25 C o. The conditions noted are these: protein: recombinant; tags: N-terminal His6 removed by thrombin; chain copies: 2; label: 5'-HEX; blunt; self-complementary, 2 copies of the strand.

The target of data set [13] is T1, OCT2 DBD (POU domain). As to the kind of experiment: fluorescence anisotropy; 0.35 M Na+, no poly[d(I-C)]; FP: 5 nM probe, 10 mM Bis-Tris pH 6.5, 0.01% BSA, 0.15-0.35 M NaCl, 25 C overnight, Hill fit with nH = 2 (macroscopic KD of dimer); EMSA: 10 nM DNA, PBS, 25 C o. The conditions noted are these: protein: recombinant; tags: N-terminal His6 removed by thrombin; chain copies: 2; label: 5'-HEX; blunt; self-complementary, 2 copies of the strand.

B1: OCT2 DBD (DNA-binding domain, POU domain, of human POU factor OCT2) (domain or fragment, UniProt P09086 195-357, looked up)
chain: EEPSDLEELEQFARTFKQRRIKLGFTQGDVGLAMGKLYGNDFSQTTISRFEALNLSFKNMCKLKPLLEKWLNDAETMSVDSSLPSPNQLSSPSLGFDGLPGRRRKKRTSIETNVRFALEKSFLANQKPTSEEILLIAEQLHMEKEVIRVWFCNRRQKEKRINP
notes: Cloned into NdeI/BamHI of pET15b; residues of the vector may be left at the N-terminus after thrombin cleavage (surmised); the linker is not resolved in the structure; also called POU2F2; OCT DBD; source: E. coli BL21(DE3)pLysS, purified (Ni-NTA, thrombin cleavage, Sepharose SP, Superdex 75); not shown: His6, N-terminal, cleaved
A word on the stoichiometry N: it is the number of molecules, sites or subunits per partner or assembly. Regarding B1, the “stoichiometry N” value in [1] is 2.

B2: MORE 22-bp, HEX-labelled (dsDNA)
DNA 1: TCCTCATGCATATGCATGAGGA
DNA 2: TCCTCATGCATATGCATGAGGA
By Kd is commonly meant the equilibrium constant for the complex coming apart. As to B2, the dissociation constant (Kd) with OCT2 DBD (POU domain) [2] was 3.8 ± 1.4 nM; with OCT2 DBD (POU domain) [3] it was 29 ± 9 nM; in the data set with OCT2 DBD (POU domain) [4], 5.5 ± 1.3 nM; in the data set with OCT2 DBD (POU domain) [5] it was 41 ± 13 nM; with OCT2 DBD (POU domain) [6], 88 ± 18 nM; in the data set with OCT2 DBD (POU domain) [7], 9.7 ± 3.7 nM. In addition, the Kd was determined as 16 ± 7 nM with OCT2 DBD (POU domain) [8]; 71 ± 19 nM in the data set with OCT2 DBD (POU domain) [9]; 560 ± 100 nM in the data set with OCT2 DBD (POU domain) [10]; 11 ± 4 nM with OCT2 DBD (POU domain) [11]; 190 ± 60 nM with OCT2 DBD (POU domain) [12]; 1200 ± 300 nM in the data set with OCT2 DBD (POU domain) [13].
